How the values were obtained:
[1] = target: plasmin (Homo sapiens (Human)) (UniProt P00747); experiment: surface plasmon resonance, phospholipid-associated annexin A2; phospholipid-associated annexin A2 with plasmin
[2] = target: tissue-type plasminogen activator (t-PA) (UniProt P00750); experiment: surface plasmon resonance, phospholipid-associated AIIt; AIIt with t-PA
[3] = target: plasmin (Homo sapiens (Human)) (UniProt P00747); experiment: surface plasmon resonance, phospholipid-associated AIIt; AIIt with plasmin
[4] = target: [Glu]-plasminogen (human) (UniProt P00747); experiment: surface plasmon resonance, phospholipid-associated AIIt; AIIt with plasminogen
Sequence of [Glu]-plasminogen (human) (P00747 20-810 limits assumed): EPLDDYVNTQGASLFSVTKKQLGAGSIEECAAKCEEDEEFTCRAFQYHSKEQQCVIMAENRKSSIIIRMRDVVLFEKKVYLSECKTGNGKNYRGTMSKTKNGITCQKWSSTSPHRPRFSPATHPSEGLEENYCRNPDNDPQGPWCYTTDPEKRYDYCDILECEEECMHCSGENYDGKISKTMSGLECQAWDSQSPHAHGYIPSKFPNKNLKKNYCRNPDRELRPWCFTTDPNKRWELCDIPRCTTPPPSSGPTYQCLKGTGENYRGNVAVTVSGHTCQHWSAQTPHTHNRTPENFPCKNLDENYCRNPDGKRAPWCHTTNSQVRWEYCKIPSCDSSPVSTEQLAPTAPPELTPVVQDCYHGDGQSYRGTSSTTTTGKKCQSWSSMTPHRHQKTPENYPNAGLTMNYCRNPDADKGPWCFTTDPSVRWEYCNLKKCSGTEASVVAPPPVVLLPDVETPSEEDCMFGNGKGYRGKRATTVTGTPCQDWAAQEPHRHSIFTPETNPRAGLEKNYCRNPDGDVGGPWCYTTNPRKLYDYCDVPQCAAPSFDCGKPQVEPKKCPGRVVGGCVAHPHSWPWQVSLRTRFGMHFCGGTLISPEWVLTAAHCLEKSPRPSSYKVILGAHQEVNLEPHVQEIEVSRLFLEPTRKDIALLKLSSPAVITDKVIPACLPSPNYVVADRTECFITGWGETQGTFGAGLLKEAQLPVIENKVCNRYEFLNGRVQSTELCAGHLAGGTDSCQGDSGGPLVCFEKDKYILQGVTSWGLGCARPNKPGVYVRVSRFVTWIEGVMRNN

[5] = target: T1, Annexin II heterotetramer (AIIt) purified from bovine lung (bovine, UniProt P04272 2-339; P60902 2-97); experiment: iodinated A61 (0.008-5 µM) on AIIt bound to phospholipid-coated wells, gamma counting
T1 construct: also called annexin II tetramer
T1 sequence (P04272 2-339 limits assumed, chain 1 of 2): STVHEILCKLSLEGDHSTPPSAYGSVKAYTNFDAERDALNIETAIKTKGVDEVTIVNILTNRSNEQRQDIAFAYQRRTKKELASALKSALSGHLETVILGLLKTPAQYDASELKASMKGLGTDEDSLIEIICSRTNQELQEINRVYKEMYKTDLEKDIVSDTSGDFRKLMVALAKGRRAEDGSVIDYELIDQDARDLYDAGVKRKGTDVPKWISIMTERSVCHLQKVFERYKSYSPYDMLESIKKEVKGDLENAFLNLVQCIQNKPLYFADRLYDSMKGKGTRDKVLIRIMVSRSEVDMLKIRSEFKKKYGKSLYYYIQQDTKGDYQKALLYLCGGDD
T1 sequence (P60902 2-97 limits assumed, chain 2 of 2): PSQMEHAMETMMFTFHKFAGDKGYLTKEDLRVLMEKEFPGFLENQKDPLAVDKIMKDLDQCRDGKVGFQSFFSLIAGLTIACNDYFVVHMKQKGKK
From the text: Binding of A₆₁ to AIIt—The purified A₆₁ was iodinated according to manufacturer's procedures. Iodinated A₆₁ retained biological activity as determined by the endothelial cell proliferation assay (Kassam et al., 2001). 96-well Immulon-1 Removawell strips (Dynex Technologies) were coated with phospholipid mixture containing 3:1 ratio of phosphatidylserine to phosphatidylcholine and air-dried. The coated strips were blocked with 1% fatty acid-free bovine serum albumin (BSA) in a buffer containing 20 mM Hepes (pH 7.4), 140 mM NaCl, and 2 mM CaCl₂ (buffer A) at room temperature for 2 h. The strips were washed with buffer A and incubated with 1 μM AIIt in buffer A at room temperature for 4 h. The strips were then washed and incubated with 0.008-5 μM iodinated A₆₁ with or without 30-fold molar excess of cold A₆₁ or BSA at 4° C. After overnight incubation, the strips were washed five times with PBS, and individual wells were detached and measured for radioactivity with a γ-counter. The data shown (n=6) are the average of two separate experiments.

Sequence of tissue-type plasminogen activator (t-PA) (P00750 36-562 limits assumed): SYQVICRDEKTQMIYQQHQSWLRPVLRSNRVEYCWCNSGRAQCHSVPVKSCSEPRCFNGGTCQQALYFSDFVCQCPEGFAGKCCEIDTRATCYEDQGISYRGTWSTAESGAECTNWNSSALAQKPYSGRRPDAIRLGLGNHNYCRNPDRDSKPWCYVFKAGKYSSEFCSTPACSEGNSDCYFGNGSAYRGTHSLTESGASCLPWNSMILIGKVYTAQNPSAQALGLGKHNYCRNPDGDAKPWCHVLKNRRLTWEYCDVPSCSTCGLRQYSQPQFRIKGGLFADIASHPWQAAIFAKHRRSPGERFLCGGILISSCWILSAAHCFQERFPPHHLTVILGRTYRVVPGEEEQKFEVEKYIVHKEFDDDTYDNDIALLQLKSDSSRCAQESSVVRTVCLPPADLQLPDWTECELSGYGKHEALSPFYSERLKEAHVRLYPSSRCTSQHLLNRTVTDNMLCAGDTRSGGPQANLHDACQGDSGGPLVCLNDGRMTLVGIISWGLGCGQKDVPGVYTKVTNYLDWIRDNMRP

In the case of “Annexin A2 (p36), phospholipid-associated (from UniProt P07355 2-339)”, the Kd [1] is reported as 780 nM.

Work on “Annexin II heterotetramer (AIIt), phospholipid-associated, as used in the surface plasmon resonance study of Example 12 (from UniProt P07355 2-339)” yielded a Kd [2] of 680 nM, a Kd [3] of 750 nM and a Kd [4] of 110 nM.

B1: A61 antiangiogenic plasminogen fragment (Lys78-Lys468 of plasminogen) (other)
chain: KVYLSECKTGNGKNYRGTMSKTKNGITCQKWSSTSPHRPRFSPATHPSEGLEENYCRNPDNDPQGPWCYTTDPEKRYDYCDILECEEECMHCSGENYDGKISKTMSGLECQAWDSQSPHAHGYIPSKFPNKNLKKNYCRNPDRELRPWCFTTDPNKRWELCDIPRCTTPPPSSGPTYQCLKGTGENYRGNVAVTVSGHTCQHWSAQTPHTHNRTPENFPCKNLDENYCRNPDGKRAPWCHTTNSQVRWEYCKIPSCDSSPVSTEQLAPTAPPELTPVVQDCYHGDGQSYRGTSSTTTTGKKCQSWSSMTPHRHQKTPENYPNAGLTMNYCRNPDADKGPWCFTTDPSVRWEYCNLKKCSGTEASVVAPPPVVLLPDVETPSEEDCMFGNGK
modifications: radioiodinated (iodinated with Iodobeads) in the binding assay
notes: also called AAPF; anti-angiogenesis plasmin fragment
B1 showed a Kd [5] of 1000 nM.

From US20070231899A1 (published 2007)
